{"source": "paper PMC4202109", "about": "(The FASEB Journal, 2014)", "target": "Fluorescently labeled ATS (intracellular segment) of PfEMP1 variant PF08_0141, full-length segment (P. falciparum, 5-FAM label)", "experiment": "fluorescence polarisation"}
{"binder": "PFI1780w PHIST domain (as used in fluorescence polarization) (domain or fragment) SLSDEINKCDMKKYTAEEINEMINSSNEFINRNDMNIIFSYVHESEREKFKKVEENIFKFIQSIVETYKIPDEYKMRKFKFAHFEMQGYALKQEKFLLEYAFLSLNGKLCERKKFKEVLEYVKREWIEFRKSMFDVWKEKLASEFREHGEMLNQKRKLKQHEL", "values": [{"measurement": "fold lower affinity than PFE1605w", "value": "~30", "unit": "fold"}]}
